Source: the RNAGym collection of RNA variant scans (doi:10.1073/pnas.2313332121)

B1: TPR t1 (parent)
chain: GACCAAUCUGCCCUCAGAGCUCGAGAACAUCUUCGGAUGCAGAGGAGGCAGGCUUCGGUGGCGCGAUAGCGCCAACGUCCUCAACCUCCAAUGCAUCCCACCACAUGAUGAUGCCUGAAGAGCCUUGGUUUUUUG

Variants of: B1
Test: polymerase ribozyme fitness, log enrichment relative to wild type (log ratio); higher = more active; in vitro selection for triplet polymerase activity
In short: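 Frozen incubation at −7 °C formed the core of a single, triplicate in vitro selection round applied to PCR-built, transcribed mutant libraries of each subunit of a heterodimeric triplet polymerase ribozyme. Extended constructs were gel-excised, captured with streptavidin beads and amplified by RT-PCR, and input and output libraries were Illumina-sequenced with a filter of ≥10 input reads and ≥1 read per output. Fitness is the logarithm of genotype enrichment relative to wild-type enrichment, with inverse-variance-weighted replicate averaging, and the logarithm is base 2.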

Point of comparison: U54A A119G G135U, “polymerase ribozyme fitness (log ratio)” value 0.414. Against it:
- C8A U9G A26G G44A G45U G63U C115A — lower, -3.15
- G42C G61A C82U U116A — lower, -4.34
- C13U U33G G69U C104G G120A U125C — lower, -6.78
- A91U U109A — lower, -8.07
- U7G C64U C97U G107A U112A — lower, -5.51
- U9G C34U U59A A103U — lower, -5.76
- C40A G60A C85G — lower, -2.93
- C13G C40U G47C C62U U78A — lower, -3.84
- U33G U87A — lower, -6.14
- C82U A91U A100U — lower, -3.25
- C11U C22G C40U — lower, -3.22
- A6U C49G G122A — lower, -0.638
- C40A U92G — lower, -2.37
- C20U U55A C79U G120A — lower, -1.1
- A29G C73U — lower, -1.55
- A37G G44C G48U C73A — lower, -2.25
- A6C A83C C97U G110A — lower, -1.92
- C40G U116C — lower, -2.34
- C31G G48U G65A C86G A100C G120C — lower, -6.59
- C4U C49U C85U C89G — lower, -2.63
- C8G C13U C40G C124G — higher, 0.821
- U38G A41U C53G C62A G113A A119C — lower, -5.91
- C53U C86G C115U — lower, -1.83
- G69C C76U — lower, -4.07
- A37C A41G C53A C88U — lower, -0.41
- C20A G69A — lower, -5.6
- A29C C56A G71C U87A C98A C101U G110C — lower, -6.81
- C72U C101G — lower, -2.18
- U21C C56A G58A G113C U132A — lower, -2.29
- C15U A16U G42C G61A C89A — lower, -1.37
- A95G C114G — lower, -3.45
- C15U U54C C72U — lower, -1.39
- C3U C123A — within 0.2 log units, 0.564
- G39U A74G G110C A111G — lower, -5.64
- A90G A95C — lower, -0.759
- G39A G45C G60U G69U C82U — lower, -5.66
- C34U C56A — lower, -5.06
- G19U G110A — lower, -4.35
- A68G U129A — lower, -4.01
- A41U G52A C62U G117U — lower, -5.18
- G17A C124G — lower, 0.0623
- G45U C70A C123U — lower, -1.23
- C73G C94A C102U — lower, -3.82
- A2U C34A G60A G120U U125A U132A — lower, -3.85
- A6G G45C — lower, -1.17
- C8U C82U U116G G117A — lower, 0.198
- A16G U55A C102A A121U — lower, -0.698
- C4G G39U A46C C72A U87G C88G — lower, -3.06
- C53U G57C U78C C114A C123U — lower, -3.58
- U9A G58A G61A C85A G113A — lower, -0.721
- C70G U126C — lower, -3.27
- A5U U112G — lower, -0.587
- C49A G52C G60A U112G G127C — lower, -2.8
- U81G G120A — lower, -3.83
- G36C A50C G52A — lower, -4.73
- U14C A37C — lower, -2.09
- C12G C20G C56U C79U C82U A91U G107C G117A — lower, -3.77
- C8U A26U U59G — lower, -2.5
- C22G G23A C89U C114U — lower, -4.41
- G71A G77U C88U G110A C115A U130A — lower, -4.99
- U33G G128A — lower, -6.19
- C40U U78G C85G — lower, -2.08
- A18U C124A — lower, -0.753
- G35U G58A C115U — lower, -7.02
- A29U G127A — lower, -4.12
- C79G G120A U130C — lower, -1.26
- G71C C97U — lower, -1.45
- C70U C82G — lower, -0.344
- A37C C56G — lower, -1
- C56A G57C — within 0.2 log units, 0.379
- C15G G117C — lower, -3.41
- U33G U55A C72G — lower, -6.25
- U21A C72G C86G — lower, -2.59
- C64U A83U — higher, 0.866
- G42A G44U C70U C76U — lower, -4.28
- G35A G45C G71C G77C C104U C114G — lower, -5.08
- A5C U32C A41G G60A U78A U96A — lower, -2.78
- G77U C114G A121C — lower, -1.7
- C56G G58C — within 0.2 log units, 0.394
- C28U G45C C76A C89G G120C — lower, -5.73
- U9G U78C C89U — lower, -0.533
- G58U C104U A105U G110A C124U U133G — lower, -7.29
- C62A C89A — lower, -3.57
- G39A C64U A90G G135U — lower, -1.27
- G39U G48U — lower, -1.59
- C64U C82G C89A U109A — lower, -5.15
- G61A C73U A91C C101A — lower, -2.91
- G69C C115A — lower, -0.724
- C8G A43U C88G G110U G120U — lower, -4.09
- C11U G47C C56U U78A A100U C115U U131C — lower, -4.41
- U9G G17U G60C U96C C104U G117A — lower, -3.16
- C8A C34G G110C U129G — lower, -8.1
- C53A C86A C124A — higher, 1.52
- C8G G42A — lower, -0.64
- G47U C101U U125G U126C — lower, -2.99
- G60A U112C — higher, 1.25
- U9A A29U A41U G60A U78C G93U A119G — lower, -2.57
- G10C A83U — lower, -1.28
- C34A A46U — lower, -3.37
- C8G C12G C73U A83G G113C — lower, -2.3
- A66U C73G — lower, -1.75
- C12U U21A C62G C104U — lower, -2.05
- C28U G61A U112C U131A — within 0.2 log units, 0.223
- G63A U78G — lower, -2.6
- C94U G110U — lower, -2.05
- C31G — lower, -7.22
- G10U A18G A43C C72U C80U C85U G120U — lower, -3.18
- A6U C62U U112G C115A U131C G135C — lower, -1.02
- U14A A74C C76A A121C — lower, -1.88
- C4A C34A G71U — lower, -4.3
- A24G U59A U78C C85G U106G — lower, -3.94
- C12U U14A C40A A105C — lower, -3.92
- U33A C56G — lower, -4.38
- U87A G120U — within 0.2 log units, 0.227
- U9A U30C G44A G57U G60A U112G U125A — lower, -5.02
- C101A A111G — within 0.2 log units, 0.362
- C53A C72U C86U G110C — lower, -3.78
- G63U U92G G122A — lower, -5.14
- A91G U112A G127C — lower, -1.56
- C40A C62A A118G — lower, -2.61
- U9G A18C G117A — higher, 0.733
- C12G C85G — lower, -1.08
- C3U U9C C49A G69A C115A — lower, -0.734
- C49A A83C — lower, -1.24
- A2G G77A C102A C123G G128C — lower, -3.09
- C11U C70U — lower, -0.753
- U14A C72U G93U U133A G135U — lower, -4.17
- G44A G71A A91G U116A G122A C124U — lower, -4.96
- C73A C99U A119U U130A — lower, -4.24
- C56A U87G A108G G113C — lower, -3.65
- U7A C11A G77A U81G — lower, -1.65
- C13G G47U C49U C73A — lower, -3.52
- C20A C124A — lower, -0.989
- C12A C49A C70A C97A G120U U130G — lower, -5.85
- C13U G42U — lower, -1.12
- C8U C82U G113U — lower, -2.67
- C102U G113A U129A — lower, -3.17
- G19A C94G — lower, -3.41
- C12A G47A C70U C88U U106A — lower, -2.59
- C15U U32C C89A A119G G128C — lower, -3.29
- U7G U129A — lower, -0.778
- C13U C72G A74U G93A C114G — lower, -4.31
- U38G G69C U112C — lower, -1.03
- G57A C104A — lower, -2.92
- C72U G128U — lower, -1.48
- A46C C56G C70A — lower, -5.02
- G45U C114U — lower, -3.17
- G47U U81A G122U C123U U130C U131A — lower, -2.99
- A29U G63U — lower, -2.58
- C56U C88U — lower, -0.153
- A27U G36C — lower, -3.53
- C53G G69U — lower, -0.127
- G23C G69U — lower, -5.11
- C4A C88U — lower, -1.68
- C56G A74U C86A — lower, -2.4
- C4U C11U A18G C34U C73G C124G — lower, -5.4
- C104G U112A — lower, -4.8
- U21A C56A — lower, -0.423
- C72A C114U — lower, -1.24
- G19A — lower, -2.28
- C73G A90G C104U U112C A121U U130C — higher, 1.89
- A68G C80A — lower, -6.54
- G110U U130C — lower, -1.04
- G110U U130A — lower, -1.27
- U14C A26C C70U U78A A83U U109G U112A — lower, -6.59
- C64A C89A G117C G135U — lower, -5.9
